Source: US20250388638A1, “COMPOSITIONS AND METHODS FOR ORAL DELIVERY” (IMAGINE PHARMA LLC, priority 2021, published 2025)
Where two headings read alike, the source gives them in different places.

B1: MADDAGAAGGPGGPGGPGMGNRGGFRGGFGSGIRGRGRGRGRGRGRGRGAHAEGTFTSDVSSYLEGQAAKEFIAWLVRGRG (protein)
chain: MADDAGAAGGPGGPGGPGMGNRGGFRGGFGSGIRGRGRGRGRGRGRGRGAHAEGTFTSDVSSYLEGQAAKEFIAWLVRGRG
B2: MADDAGAAGGPGGPGGPGMGNRGGFRGGFGSGIRGRGRGRGRGRGRGRGAHAEGTFTSDVSSYLEGQAAKEFIAWLVRGRGMADDAGAAGGPGGPGGPGMGNRGGFRGGFGSGIRGRGRGRGRGRGRGRGA (protein)
chain: MADDAGAAGGPGGPGGPGMGNRGGFRGGFGSGIRGRGRGRGRGRGRGRGAHAEGTFTSDVSSYLEGQAAKEFIAWLVRGRGMADDAGAAGGPGGPGGPGMGNRGGFRGGFGSGIRGRGRGRGRGRGRGRGA

Tests used:
[1] = test system: Caco-2 cells
Text: (§1) (See Example 1) Caco-2 cells may be cultured in the presence of a polypeptide construct comprising a polypeptide and a heterologous polypeptide and analyzed using a fluorescent assay to determine the percentage of uptake of the polypeptide construct into the cells.
(§2) Polypeptide conjugates may be studied in vitro using Caco-2 cells, to assess uptake and bioactivity of the therapeutic polypeptide.
(§3) To mimic the steric conditions in the intestine in vivo, Caco-2 cells may be cultured on permeable filter inserts (such as available from Becton Dickenson, Corning, Costar).
(§4) Various polypeptide constructs were labeled with Alexa Fluor™ Labeling Kits (ThermoFisher), to generate fluorescently labeled polypeptide constructs. Caco-2 cells were seeded in 12-well plates and incubated for 4 hours with the labeled polypeptides at concentrations ranging from 2-10 ug/mL. Following incubation, the plates were read on a Tecan Infinite M Nano+ and washed gently several times with PBS, then given fresh media, and the plates were re-read. The % of fluorescence remaining in the dish represents the relative amount of uptake of polypeptide construct compared to the amount originally applied to the cells.

[2] = test system: glucose-stimulated islets; test: Inhibition of insulin secretion from glucose-stimulated islets (insulin ELISA); format: cell-based, human
Method: To determine if the polypeptide constructs comprising a polypeptide having an amino acid sequence identity according to SEQ ID NO:49 or 50 are biologically active following administration (PO), the ability of PCT-OCT to inhibit insulin secretion from glucose-stimulated islets was tested. Triplicates of 25 human islets (from a donor pancreas procured from an IIDP-approved islet center) were plated in a 96-well plate containing 100 μl of CMRL islet media (such as available from MediaTech). The islets were pre-incubated with either 100 μl (50%) serum (serum was collected from pancreas donor), 100 μl (50%) serum+PT-OCT, or 100 μl (50%) serum+PT-OCT that was exposed to thrombin for 45 minutes to cleave the polypeptide sequence from the therapeutic octapeptide of the polypeptide construct. Following a pre-incubation, the media and serum was removed and replaced with KREB's buffer solution containing 16.7 mM glucose, and incubated for an additional 30 minutes, at which point the KREB's buffer was collected. Insulin concentrations of the supernatant was measured using commercially available ELISA kits (such as available from Abcam). […] (See FIG. 19)

[3] = test system: Caco-2 cells; test: Caco-2 uptake assay with fluorescently labeled polypeptide constructs; settings: for uptake (% of fluorescence remaining): Caco-2 uptake assay of Example 1
Text: as §1, §2, §3, §4

[4] = Blood levels of polypeptide fragment after PO administration of PT-OCT (FIG. 19); format: in vivo, Wistar rats; settings: PO 600 μg/animal; 0, 3 and 5 hours
Method: Blood samples were taken from the animals at 0, 3 and 5 hours post administration.

[5] = test system: blood glucose levels; test: Blood glucose levels after PO administration of GLP-1 agonist constructs; format: in vivo, Sprague Dawley rats; settings: for blood glucose level: 600 ug PO
Text: GLP-1 agonists, such as exenatide and liraglutide are desirable candidates for formulation as an oral dose therapeutic. To test if a polypeptide according to SEQ ID 1-40, when linked to a GLP-1 agonist as a polypeptide construct, facilitates the transport of GLP-1 agonists from the stomach to the blood, following oral administration. The amino acid sequences for exenatide and liraglutide were used to clone the sequences behind (downstream) of a polypeptide comprising an amino acid sequence according to SEQ ID NO 1, in order to generate, using an expression vector system, peptide constructs comprising an amino acid sequence according to SEQ ID NOs: 42,44 (referred to in the figures as “PT-GA1” and “PT-GA2”, respectively). Also, generated was a polypeptide construct according to SEQ ID NO:46 (“PT-GA2B”), comprised of the liraglutide sequence flanked by a polypeptide according to SEQ ID NO 1 on both the carboxy and amino terminal end of the liraglutide sequence. […] (See FIG. 11) To test efficacy and bioavailability in vivo, Sprague Dawley rats were administered (PO) 600 ug of the compositions comprising polypeptide constructs selected from PT-GA1, PT-GA2 or PT-GA2B, blood was drawn at 0, 4, and 6 hrs. post-treatment, and blood glucose levels were measured. Following treatment, the blood glucose levels of the PT-GA1 treated animals went from 107 mg/dl at 0 hrs to 118 mg/dL at 4 hrs and dropped to 87.5 mg/dl at 6 hrs. post treatment, while the PT-GA2 and PT-GA2B were 98 mg/dl, 126, 111 mg/dL; and 102 mg/dL, 105 mg/dL, 104 mg/dl respectively.

| Molecule | blood glucose level ([5]; 0 hrs) [mg/dL] | blood glucose level ([5]; 4 hrs post-treatment) [mg/dL] | blood glucose level ([5]; 6 hrs post-treatment) [mg/dL] | uptake (% of fluorescence remaining) [3] [%] | further results |
| --- | --- | --- | --- | --- | --- |
| H-Met-Ala-Asp-Asp-Ala-Gly-Ala-Ala-Gly-Gly-Pro-Gly-Gly-Pro-Gly-Gly-Pro-Gly-Met-Gly-Asn-Arg-Gly-Gly-Phe-Arg-Gly-Gly-Phe-Gly-Ser-Gly-Ile-Arg-Gly-Arg-Gly-Arg-Gly-Arg-Gly-Arg-Gly-Arg-Gly-Arg-Gly-Arg-Gly-Nle (triazol-propionyl-D-Phe-Cys-Phe-D-Tru-Lys-Thr-Cys-Thr-ol)-OH [SEQ ID 50] |  |  |  |  | uptake by Caco-2 cells / targeted delivery (in words) [1]: taken up by Caco-2 cells; relative insulin secretion by glucose-stimulated islet cells, compared to control (in words) [2]: reduction; decrease of insulin secretion of glucose-stimulated islets ([2]; human islets, 50% serum pre-incubation, 16.7 mM glucose): 46%; polypeptide constructs administered to Caco-2 cells taken up ([3]; in one example, PT-OCT fusion and PT-OCT click side-by-side): approximately 38%; levels of polypeptide fragment according to SEQ ID 53 in blood (in words) [4]: increasing levels |
| MADDAGAAGGPGGPGGPGMGNRGGFRGGFGSGIRGRGRGRGRGRGRGRGAFCFWKTCT [SEQ ID 49] |  |  |  |  | polypeptide constructs administered to Caco-2 cells taken up [1]: approximately 38% |
| B1 | 98 | 126 | 111 | 31.4 | blood glucose levels following oral administration (in words) ([5]; 600 μg in PBS): decrease in blood glucose levels |
| B2 | 102 | 105 | 104 | 29.4 |  |
